Experimental data as given in patent publication US20190211076A1 (published 2019).

T1: HMHA1 (Rho GTPase-activating protein 45), minor histocompatibility antigen HA-1H, R139H polymorphism peptide … (human)
T1 peptide: VLHDDLLEA


Target: T1, HMHA1 (Rho GTPase-activating protein …)
Assay: chromium release, peptide titration on pulsed target cells; one value stated for the seven clones together (FIG. 2B); T cell clone or line
Experimental: (A) HLA-A2/HA-1^H multimer and CD8⁺ monoclonal antibody staining of seven (7) representative HA-1^H specific clones (1, 2, 10, 13, […], 16, and 5) and a control clone specific for another tumor antigen. (B) Data from a chromium release assay in which the seven HA-1^H-specific clones were tested for killing HA-1 peptide-pulsed target cells. (C) Data from cytotoxicity assays in which the HA-1^H-specific CTL clones were incubated with peptide-pulsed T2 cells, HA-1^H+ AML cell line THP-1, HA-1^H+ primary AML, or HA-1⁻ AML.
In addition, a chromium release assay (CRA) was used to test 7 of the HA-1-specific CTL clones (1, 2, 10, 13, 14, 16 and 5) for killing of HA-1^H peptide-pulsed targets. The T cell clones recognized HA-1^H peptide ([…])-pulsed target cells at very low peptide concentrations and half-maximal lysis is seen at a peptide concentration of 10 pM. (FIG. 2B) (ICC data not shown). Cytotoxicity of the isolated clones against cells with or without endogenous HA-1^H expression was also examined. The assays show 7 HA-1^H-specific CTL clones (TCR1, TCR2, TCR10, TCR13, TCR14, TCR16 and TCR5) lysing HA-1^H+ acute myeloid leukemia (AML) cell line (THP-1) and HA-1^H+ primary AML but not HA-1^H- AML (FIG. 2C).

Row | Binder | EC50 of peptide [nM]
1 | TCR1 (TCR, V domains shown) Valpha: QQGEEDPQALSIQEGENATMNCSYKTSINNLQWYRQNSGRGLVHLILIRSNEREKHSGRLRVTLDTSKKSSSLLITASRAADTASYFCATKRDSGAGSYQLTFGKGTKLSVIP Vbeta: GVSQDPRHKITKRGQNVTFRCDPISEHNRLYWYRQTLGQGPEFLTYFQNEAQLEKSRLLSDRFSAERPKGSFSTLEIQRTEQGDSAMYLCASSSTGGHNEQFFGPGTRLTVL | 0.01
2 | HA-1H TCR2 (TCR, V domains shown) Valpha: KQEVTQIPAALSVPEGENLVLNCSFTDSAIYNLQWFRQDPGKGLTSLLLIQSSQREQTSGRLNASLDKSSGRSTLYIAASQPGDSATYLCAVIGLGGTYKYIFGTGTRLKVLA Vbeta: GVSQDPRHKITKRGQNVTFRCDPISEHNRLYWYRQTLGQGPEFLTYFQNEAQLEKSRLLSDRFSAERPKGSFSTLEIQRTEQGDSAMYLCASSLVKGEKLFFGSGTQLSVL | 0.01
3 | TCR5 (TCR, V domains shown) Valpha: QQGEEDPQALSIQEGENATMNCSYKTSINNLQWYRQNSGRGLVHLILIRSNEREKHSGRLRVTLDTSKKSSSLLITASRAADTASYFCATNSGNTPLVFGKGTRLSVIA Vbeta: GVSQDPRHKITKRGQNVTFRCDPISEHNRLYWYRQTLGQGPEFLTYFQNEAQLEKSRLLSDRFSAERPKGSFSTLEIQRTEQGDSAMYLCASSLTTLDEQYVGPGTRLTVT | 0.01
4 | TCR10 (TCR, V domains shown) Valpha: KNQVEQSPQSLIILEGKNCTLQCNYTVSPFSNLRWYKQDTGRGPVSLTIMTFSENTKSNGRYTATLDADTKQSSLHITASQLSDSASYICVVDSGGGADGLTFGKGTHLIIQP Vbeta: GVSQDPRHKITKRGQNVTFRCDPISEHNRLYWYRQTLGQGPEFLTYFQNEAQLEKSRLLSDRFSAERPKGSFSTLEIQRTEQGDSAMYLCASSMLTNYEQYFGPGTRLTVT | 0.01
5 | HA-1H TCR16 (TCR, V domains shown) Valpha: KQEVTQIPAALSVPEGENLVLNCSFTDSAIYNLQWFRQDPGKGLTSLLLIQSSQREQTSGRLNASLDKSSGRSTLYIAASQPGDSATYLCAVHLLNDYKLSFGAGTTVTVRA Vbeta: GVSQDPRHKITKRGQNVTFRCDPISEHNRLYWYRQTLGQGPEFLTYFQNEAQLEKSRLLSDRFSAERPKGSFSTLEIQRTEQGDSAMYLCASSLVVGNEQFFGPGTRLTVL | 0.01
